This is an account of results in patent US20250297003A1.

The target in the experiment is sialic acid-binding immunoglobulin-like lectin-9 (Siglec-9), human, on mast cells (human) (UniProt Q9Y336). Description: cell-based or functional assay.
Chain of UniProt Q9Y336 (Q9Y336 18-463): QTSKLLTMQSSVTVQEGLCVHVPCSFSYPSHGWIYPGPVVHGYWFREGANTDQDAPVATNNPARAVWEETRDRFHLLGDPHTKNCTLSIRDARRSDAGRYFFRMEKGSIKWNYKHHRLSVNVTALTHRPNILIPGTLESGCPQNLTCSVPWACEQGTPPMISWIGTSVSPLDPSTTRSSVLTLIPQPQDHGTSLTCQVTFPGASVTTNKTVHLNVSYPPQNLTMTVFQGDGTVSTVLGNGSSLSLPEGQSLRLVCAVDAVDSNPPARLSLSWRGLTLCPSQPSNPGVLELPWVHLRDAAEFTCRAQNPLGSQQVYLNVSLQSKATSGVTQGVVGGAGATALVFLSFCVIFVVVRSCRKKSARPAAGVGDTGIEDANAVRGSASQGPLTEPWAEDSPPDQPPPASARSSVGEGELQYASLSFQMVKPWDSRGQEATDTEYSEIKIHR

For “mouse anti-human Siglec-9 monoclonal antibody (clone 191240, R&D Systems)”, the inhibition of MCP-1 release by HSCMCs (Siglec-9 co-crosslinked with FcεRI by a secondary antibody) stood at 46.5%; the percentage of surface Siglec-9 signal lost (HSCMCs, 24 h, delayed secondary staining) stood at 30%; the percentage of surface Siglec-9 signal lost (LAD2 cells, 1 h, delayed secondary staining) is 30%.
